For this assay, the target named is SCM-2 on the surface of S. canis strain IMT40096 (Streptococcus canis (endogenous in strain IMT40096)). In words: flow cytometry on cells; S. canis bacteria (mid-exponential phase) incubated with FITC-labeled human fibrinogen in PBS, 30 min at 37°C, fixed; MFI normalized to SCM-1 S. canis G361; scm2 knock-out of IMT40096 as control. For orientation: A flow cytometer gives signals particle by particle.

Bounds are passed on as bounds.

Consider “FITC-labeled human fibrinogen (from UniProt P02671 36-866; P02675 45-491; P02679 27-453) (complex)”, for which the fold of fluorescence against S. canis G361 was > 3 fold of G361.

For the origin of these results see article PMC10641296.
